Reference: article PMC9675814, “DNA mechanical flexibility controls DNA potential to activate cGAS-mediated immune surveillance”

Columns and labels:
hcGAS WT [1] = molecular target: T1, hcGAS WT (Homo sapiens, UniProt Q8N884 1-522); assay: MST; details: EMSA: 50 nM Cy3-DNA, 20 mM Tris-HCl pH 7.5, 150 mM NaCl, 37 C 30 min, 1.5% agarose, MST: 50 nM Cy5-DNA, same buffer, room temperature, MARTFQ: 50 nM cGAS
hcGAS WT [2] = molecular target: T1, hcGAS WT; assay: MARTFQ fluorescence quenching; EMSA: 50 nM Cy3-DNA, 20 mM Tris-HCl pH 7.5, 150 mM NaCl, 37 C 30 min, 1.5% agarose; MST: 50 nM Cy5-DNA, same buffer, room temperature; MARTFQ: 50 nM cGAS, DNA titration, 5 min; details: protein: recombinant, tags: His (pET-28a, Ni purified)
hcGAS WT [3] = molecular target: T1, hcGAS WT; assay: EMSA; EMSA: 50 nM Cy3-DNA, 20 mM Tris-HCl pH 7.5, 150 mM NaCl, 37 C 30 min, 1.5% agarose; MST: 50 nM Cy5-DNA, same buffer, room temperature; MARTFQ: 50 nM cGAS, DNA titration, 5 min; details: protein: recombinant, tags: His (pET-28a, Ni purified), label: 5' Cy3 on F (EMSA)
[4] = blunt, self-complementary strands

T1 sequence (Q8N884 whole entry): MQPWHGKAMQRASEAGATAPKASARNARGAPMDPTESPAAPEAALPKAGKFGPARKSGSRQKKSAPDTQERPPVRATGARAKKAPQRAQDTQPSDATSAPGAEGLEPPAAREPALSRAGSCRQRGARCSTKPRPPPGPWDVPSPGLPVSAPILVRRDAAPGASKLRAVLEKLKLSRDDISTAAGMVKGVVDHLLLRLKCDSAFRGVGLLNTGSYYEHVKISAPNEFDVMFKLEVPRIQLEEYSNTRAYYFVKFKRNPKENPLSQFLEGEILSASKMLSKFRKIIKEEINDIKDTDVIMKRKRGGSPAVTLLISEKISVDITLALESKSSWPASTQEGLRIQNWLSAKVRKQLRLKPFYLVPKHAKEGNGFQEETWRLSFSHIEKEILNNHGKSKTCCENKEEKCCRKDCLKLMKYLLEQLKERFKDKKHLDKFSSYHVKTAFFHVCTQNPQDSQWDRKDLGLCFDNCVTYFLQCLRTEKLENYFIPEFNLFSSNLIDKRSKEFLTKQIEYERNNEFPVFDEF

## Mis ISD
hcGAS WT [1]; mismatch
  Kd: 108 nM

## Nick ISD
hcGAS WT [1]; nick
  Kd: 150 nM

## Ctrl ISD
hcGAS WT [1]
  Kd: 1270 nM

## Gap ISD
hcGAS WT [1]; gap
  Kd: 75.8 nM

## 8-OdG ISD
hcGAS WT [1]; 8-oxo-dG
  Kd: 97.9 nM

B1: pAT 44 bp poly(dA:dT) (dsDNA)
DNA 1: ATATATATATATATATATATATATATATATATATATATATATAT
DNA 2: ATATATATATATATATATATATATATATATATATATATATATAT
hcGAS WT [2]; [4]
  Kd: 640 ± 123 nM

B2: Gap E8A26 63 bp (dsDNA)
DNA 1: TTTTATTTATCGCCTCCTTTTTTTTTTTTTTTTTTTTTTTTTTCCGTGTTATCTCGAGTTAGT
DNA 2: ACTAACTCGAGATAACACGGAAA
DNA 3: AAAAAAAAAAAAAAAAAAAAAAGGAGGCGATAAATAAAA
modifications: 1 nt gap in R strand
hcGAS WT [3]; gapped duplex, three strands
  binding result: binds

B3: pGC 44 bp poly(dG:dC) (dsDNA)
DNA 1: CGCGCGCGCGCGCGCGCGCGCGCGCGCGCGCGCGCGCGCGCGCG
DNA 2: CGCGCGCGCGCGCGCGCGCGCGCGCGCGCGCGCGCGCGCGCGCG
hcGAS WT [2]; [4]
  Kd: 376 ± 78.8 nM

B4: pA:pT 44 bp (dsDNA)
DNA 1: AAAAAAAAAAAAAAAAAAAAAAAAAAAAAAAAAAAAAAAAAAAA
DNA 2: TTTTTTTTTTTTTTTTTTTTTTTTTTTTTTTTTTTTTTTTTTTT
hcGAS WT [2]; blunt
  Kd: 3460 ± 637 nM

B5: Gap pA:pT 44 bp (dsDNA)
DNA 1: AAAAAAAAAAAAAAAAAAAAAAAAAAAAAAAAAAAAAAAAAAAA
DNA 2: TTTTTTTTTTTTTTTTTTTTTT
DNA 3: TTTTTTTTTTTTTTTTTTTTT
modifications: 1 nt gap in dT strand
hcGAS WT [2]; gapped duplex, three strands
  Kd: 190 ± 35.2 nM

B6: E8 63 bp (dsDNA)
DNA 1: TTTTATTTATCGCCTCCACGGTGCTGCACGTACGCGCTGTTGGCCGTGTTATCTCGAGTTAGT
DNA 2: ACTAACTCGAGATAACACGGCCAACAGCGCGTACGTGCAGCACCGTGGAGGCGATAAATAAAA
hcGAS WT [3]; blunt
  binding result: binds
